Measured values taken from patent US20170119854A1, “HIGHLY CONCENTRATED DRUG PARTICLES, FORMULATIONS, SUSPENSIONS AND USES THEREOF” (Intarcia Therapeutics, Inc., priority 2008, published 2017).

Experiment: In vitro release rate from implantable osmotic delivery device (RP-HPLC)
Type: physicochemical
Conditions: 37° C., out to 100 days
Method: For each study, a drug reservoir of an implantable osmotic delivery device was filled with 160 μl of one of the suspension formulations described in Example 2. The membrane ends of the osmotic pumps were placed into stoppered glass vials filled with 3 ml phosphate buffer solution (PBS), and the diffusion moderator ends of the osmotic pumps were placed into glass vials filled with 2.5 to 3 ml release rate medium (citrate buffer solution at pH 6.0 with 0.14 M NaCl and 0.2% sodium azide).
Each system was placed into a capped test tube, with the diffusion moderator side down, and partially immersed in a 37° C. water bath. At specified time points, the glass vials at the diffusion moderator ends were replaced with new glass vials filled with 2.5 to 3 ml release rate medium (citrate buffer solution at pH 6.0 with 0.14 M NaCl and 0.2% sodium azide). Samples were collected from the diffusion moderator ends of the osmotic pumps and analyzed using RP-HPLC.

omega interferon
approximate release rate: ~50 µg/day
